{"source": "paper PMC3226482", "about": "(Molecular Biology of the Cell, 2011)", "binders": {"B1": {"name": "GST-hsNXF1 (full-length human NXF1) (natural protein)", "chain": "MADEGKSYSEHDDERVNFPQRKKKGRGPFRWKYGEGNRRSGRGGSGIRSSRLEEDDGDVAMSDAQDGPRVRYNPYTTRPNRRGDTWHDRDRIHVTVRRDRAPPERGGAGTSQDGTSKNWFKITIPYGRKYDKAWLLSMIQSKCSVPFTPIEFHYENTRAQFFVEDASTASALKAVNYKILDRENRRISIIINSSAPPHTILNELKPEQVEQLKLIMSKRYDGSQQALDLKGLRSDPDLVAQNIDVVLNRRSCMAATLRIIEENIPELLSLNLSNNRLYRLDDMSSIVQKAPNLKILNLSGNELKSERELDKIKGLKLEELWLDGNSLCDTFRDQSTYISAIRERFPKLLRLDGHELPPPIAFDVEAPTTLPPCKGSYFGTENLKSLVLHFLQQYYAIYDSGDRQGLLDAYHDGACCSLSIPFIPQNPARSSLAEYFKDSRNVKKLKDPTLRFRLLKHTRLNVVAFLNELPKTQHDVNSFVVDISAQTSTLLCFSVNGVFKEVDGKSRDSLRAFTRTFIAVPASNSGLCIVNDELFVRNASSEEIQRAFAMPAPTPSSSPVPTLSPEQQEMLQAFSTQSGMNLEWSQKCLQDNNWDYTRSAQAFTHLKAKGEIPEVAFMK"}, "B2": {"name": "MBP-hsNXF1-N (domain or fragment)", "chain": "MADEGKSYSEHDDERVNFPQRKKKGRGPFRWKYGEGNRRSGRGGSGIRSSRLEEDDGDVAMSDAQDGPRVRYNPYTTRPNRRGDTWHDRDRIHVTVRRDRAPPERGGAG"}, "B3": {"name": "MBP-hsNXF1-N(71-75/A) (domain or fragment)", "chain": "B2 chain with R71A, Y72A, N73A, P74A, Y75A"}, "B4": {"name": "MBP-hsNXF1-N(21-30/A) (domain or fragment)", "chain": "B2 chain with R21A, K22A, K23A, K24A, G25A, R26A, G27A, P28A, F29A, R30A"}, "B5": {"name": "importin 4 (natural protein)", "chain": "MESAGLEQLLRELLLPDTERIRRATEQLQIVLRAPAALPALCDLLASAADPQIRQFAAVLTRRRLNTRWRRLAAEQRESLKSLILTALQRETEHCVSLSLAQLSATIFRKEGLEAWPQLLQLLQHSTHSPHSPEREMGLLLLSVVVTSRPEAFQPHHRELLRLLNETLGEVGSPGLLFYSLRTLTTMAPYLSTEDVPLARMLVPKLIMAMQTLIPIDEAKACEALEALDELLESEVPVITPYLSEVLTFCLEVARNVALGNAIRIRILCCLTFLVKVKSKALLKNRLLPPLLHTLFPIVAAEPPPGQLDPEDQDSEEEELEIELMGETPKHFAVQVVDMLALHLPPEKLCPQLMPMLEEALRSESPYQRKAGLLVLAVLSDGAGDHIRQRLLPPLLQIVCKGLEDPSQVVRNAALFALGQFSENLQPHISSYSREVMPLLLAYLKSVPLGHTHHLAKACYALENFVENLGPKVQPYLPELMECMLQLLRNPSSPRAKELAVSALGAIATAAQASLLPYFPAIMEHLREFLLTGREDLQPVQIQSLETLGVLARAVGEPMRPLAEECCQLGLGLCDQVDDPDLRRCTYSLFAALSGLMGEGLAPHLEQITTLMLLSLRSTEGIVPQYDGSSSFLLFDDESDGEEEEELMDEDVEEEDDSEISGYSVENAFFDEKEDTCAAVGEISVNTSVAFLPYMESVFEEVFKLLECPHLNVRKAAHEALGQFCCALHKACQSCPSEPNTAALQAALARVVPSYMQAVNRERERQVVMAVLEALTGVLRSCGTLTLKPPGRLAELCGVLKAVLQRKTACQDTDEEEEEEDDDQAEYDAMLLEHAGEAIPALAAAAGGDSFAPFFAGFLPLLVCKTKQGCTVAEKSFAVGTLAETIQGLGAASAQFVSRLLPVLLSTAQEADPEVRSNAIFGMGVLAEHGGHPAQEHFPKLLGLLFPLLARERHDRVRDNICGALARLLMASPTRKPEPQVLAALLHALPLKEDLEEWVTIGRLFSFLYQSSPDQVIDVAPELLRICSLILADNKIPPDTKAALLLLLTFLAKQHTDSFQAALGSLPVDKAQELQAVLGLS"}}, "key": {"importin β [1]": {"biological_target": "T1, importin β (human, UniProt Q14974 1-876)", "T1 sequence (Q14974 whole entry)": "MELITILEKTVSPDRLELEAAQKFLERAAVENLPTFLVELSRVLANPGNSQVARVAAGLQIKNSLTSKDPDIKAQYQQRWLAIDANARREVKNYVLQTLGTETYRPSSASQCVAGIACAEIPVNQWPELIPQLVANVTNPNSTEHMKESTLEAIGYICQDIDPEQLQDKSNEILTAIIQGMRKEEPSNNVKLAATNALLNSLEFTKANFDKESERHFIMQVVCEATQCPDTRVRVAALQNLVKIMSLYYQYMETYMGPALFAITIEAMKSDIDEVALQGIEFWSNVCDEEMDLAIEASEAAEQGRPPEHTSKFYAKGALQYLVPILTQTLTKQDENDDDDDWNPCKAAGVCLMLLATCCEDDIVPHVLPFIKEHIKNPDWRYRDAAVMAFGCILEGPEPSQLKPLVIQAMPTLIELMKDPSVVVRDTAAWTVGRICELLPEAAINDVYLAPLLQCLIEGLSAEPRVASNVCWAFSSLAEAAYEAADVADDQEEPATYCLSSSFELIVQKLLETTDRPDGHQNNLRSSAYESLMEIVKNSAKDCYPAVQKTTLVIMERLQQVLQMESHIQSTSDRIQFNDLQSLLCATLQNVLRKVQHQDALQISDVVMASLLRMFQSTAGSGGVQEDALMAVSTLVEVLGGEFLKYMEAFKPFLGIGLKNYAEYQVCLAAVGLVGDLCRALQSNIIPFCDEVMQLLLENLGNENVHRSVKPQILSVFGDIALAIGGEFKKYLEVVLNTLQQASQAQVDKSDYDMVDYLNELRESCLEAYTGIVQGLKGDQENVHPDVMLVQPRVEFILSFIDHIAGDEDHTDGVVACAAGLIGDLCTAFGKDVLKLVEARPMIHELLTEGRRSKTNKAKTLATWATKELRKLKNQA", "test": "pull-down"}, "importin 11": {"biological_target": "T2, importin 11 (human, UniProt Q9UI26 1-975)", "T2 sequence": "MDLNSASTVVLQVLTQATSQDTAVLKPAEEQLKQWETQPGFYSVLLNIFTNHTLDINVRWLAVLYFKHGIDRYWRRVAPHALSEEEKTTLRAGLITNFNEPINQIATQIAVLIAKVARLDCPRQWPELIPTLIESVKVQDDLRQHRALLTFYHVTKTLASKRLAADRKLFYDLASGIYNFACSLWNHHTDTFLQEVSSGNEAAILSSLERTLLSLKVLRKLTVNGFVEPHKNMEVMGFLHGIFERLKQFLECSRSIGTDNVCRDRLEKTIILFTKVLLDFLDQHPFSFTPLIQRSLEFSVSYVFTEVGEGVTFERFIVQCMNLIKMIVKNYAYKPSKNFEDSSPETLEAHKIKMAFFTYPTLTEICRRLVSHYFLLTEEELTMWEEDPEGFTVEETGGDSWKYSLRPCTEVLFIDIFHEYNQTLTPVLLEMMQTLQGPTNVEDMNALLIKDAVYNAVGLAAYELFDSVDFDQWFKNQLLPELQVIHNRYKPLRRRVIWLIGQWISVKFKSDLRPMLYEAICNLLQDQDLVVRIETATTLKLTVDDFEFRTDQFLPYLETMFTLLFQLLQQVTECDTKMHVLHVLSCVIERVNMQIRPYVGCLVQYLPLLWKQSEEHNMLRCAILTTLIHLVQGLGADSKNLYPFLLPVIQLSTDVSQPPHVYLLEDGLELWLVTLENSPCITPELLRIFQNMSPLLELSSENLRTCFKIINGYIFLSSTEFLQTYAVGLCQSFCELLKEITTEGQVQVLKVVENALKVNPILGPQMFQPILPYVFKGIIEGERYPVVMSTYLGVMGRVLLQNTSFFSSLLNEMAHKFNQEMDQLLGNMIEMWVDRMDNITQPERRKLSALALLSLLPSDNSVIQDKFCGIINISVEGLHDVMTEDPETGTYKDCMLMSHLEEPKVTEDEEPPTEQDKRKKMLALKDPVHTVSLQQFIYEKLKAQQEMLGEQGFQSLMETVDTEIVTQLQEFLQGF", "test": "pull-down"}, "importin 4": {"biological_target": "B5", "test": "pull-down"}, "GST-Imp11": {"biological_target": "T3, GST-Imp11 (human, UniProt Q9UI26 1-975)", "T3 sequence": "T2 sequence", "test": "pull-down"}, "GST-Imp4": {"biological_target": "T4, GST-Imp4 (human, UniProt Q8TEX9 1-1081)", "T4 sequence": "B5 chain", "test": "pull-down"}, "importin β [2]": {"biological_target": "T1, importin β", "test": "ITC"}, "karyopherin β2": {"biological_target": "T5, karyopherin β2 (human, UniProt Q92973 1-898)", "T5 sequence": "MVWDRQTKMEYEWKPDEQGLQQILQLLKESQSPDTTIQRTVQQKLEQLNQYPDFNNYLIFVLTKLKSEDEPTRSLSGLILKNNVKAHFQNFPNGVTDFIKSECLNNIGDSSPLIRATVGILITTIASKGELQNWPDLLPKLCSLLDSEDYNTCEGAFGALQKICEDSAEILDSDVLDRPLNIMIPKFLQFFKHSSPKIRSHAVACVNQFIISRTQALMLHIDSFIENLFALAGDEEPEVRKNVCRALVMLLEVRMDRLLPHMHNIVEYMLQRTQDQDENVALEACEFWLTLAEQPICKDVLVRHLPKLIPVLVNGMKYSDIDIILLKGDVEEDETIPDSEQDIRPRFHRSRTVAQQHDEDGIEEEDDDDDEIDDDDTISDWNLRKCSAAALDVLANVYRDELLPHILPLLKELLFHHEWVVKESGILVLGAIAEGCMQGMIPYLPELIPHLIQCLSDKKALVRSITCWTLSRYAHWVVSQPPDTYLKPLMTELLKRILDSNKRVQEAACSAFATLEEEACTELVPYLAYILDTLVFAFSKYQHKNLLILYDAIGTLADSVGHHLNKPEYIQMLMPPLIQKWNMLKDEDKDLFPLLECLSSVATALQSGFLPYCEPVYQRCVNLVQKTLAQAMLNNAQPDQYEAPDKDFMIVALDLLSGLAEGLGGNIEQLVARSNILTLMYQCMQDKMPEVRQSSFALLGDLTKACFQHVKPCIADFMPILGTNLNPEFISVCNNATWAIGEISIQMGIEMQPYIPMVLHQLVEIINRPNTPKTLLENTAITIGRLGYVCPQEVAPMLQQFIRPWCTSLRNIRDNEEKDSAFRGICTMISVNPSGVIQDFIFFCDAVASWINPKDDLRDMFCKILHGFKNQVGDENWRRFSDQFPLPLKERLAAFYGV", "test": "ITC"}, "[3]": {"biological_target": "RanGTP (recombinant human Ran loaded with GTP) (human, UniProt P62826 1-216)", "test": "pull-down"}}, "note": "Where a chain is given by its changes, count along the chain named.", "data": [{"binder": "B1", "values": [{"measurement": "binding result", "setting": "importin β [1]", "value": "binds"}, {"measurement": "binding result", "setting": "importin 11", "value": "binds"}, {"measurement": "binding result", "setting": "importin 4", "value": "binds"}]}, {"binder": "B2", "values": [{"measurement": "binding result", "setting": "GST-Imp11", "value": "binds"}, {"measurement": "binding result", "setting": "GST-Imp4", "value": "binds"}, {"measurement": "dH (two-site model, site 1)", "setting": "importin β [2]", "value": -7.51, "unit": "kcal/mol"}, {"measurement": "dH (two-site model, site 2)", "setting": "importin β [2]", "value": -4.6, "unit": "kcal/mol"}, {"measurement": "Kd", "setting": "karyopherin β2", "value": 40.5, "unit": "nM"}, {"measurement": "dH", "setting": "karyopherin β2", "value": -17.2, "unit": "kcal/mol"}]}, {"binder": "B3", "values": [{"measurement": "dH (two-site model, site 1)", "setting": "importin β [2]", "value": -7.73, "unit": "kcal/mol"}, {"measurement": "dH (two-site model, site 2)", "setting": "importin β [2]", "value": -3.28, "unit": "kcal/mol"}, {"measurement": "Kd", "setting": "karyopherin β2", "value": 215, "unit": "nM"}, {"measurement": "dH", "setting": "karyopherin β2", "value": -12.9, "unit": "kcal/mol"}]}, {"binder": "B4", "values": [{"measurement": "Kd", "setting": "importin β [2]", "value": 2230, "unit": "nM"}, {"measurement": "dH", "setting": "importin β [2]", "value": -2.48, "unit": "kcal/mol"}, {"measurement": "Kd", "setting": "karyopherin β2", "value": 128, "unit": "nM"}, {"measurement": "dH", "setting": "karyopherin β2", "value": -13.9, "unit": "kcal/mol"}]}, {"binder": "B5", "values": [{"measurement": "binding result", "setting": "[3]", "value": "binds"}]}]}
